Tests used:
[1] = test system: positional scanning peptide library Y-A-X-X-X-X-X-S/T-X-X-X-X-A-G-K-K-biotin
[2] = test system: Flag-eIF4B (S406A)
[3] = test system: Flag-eIF4B (wild type)
Chain of Flag-eIF4B (wild type) (chain, as listed by the source): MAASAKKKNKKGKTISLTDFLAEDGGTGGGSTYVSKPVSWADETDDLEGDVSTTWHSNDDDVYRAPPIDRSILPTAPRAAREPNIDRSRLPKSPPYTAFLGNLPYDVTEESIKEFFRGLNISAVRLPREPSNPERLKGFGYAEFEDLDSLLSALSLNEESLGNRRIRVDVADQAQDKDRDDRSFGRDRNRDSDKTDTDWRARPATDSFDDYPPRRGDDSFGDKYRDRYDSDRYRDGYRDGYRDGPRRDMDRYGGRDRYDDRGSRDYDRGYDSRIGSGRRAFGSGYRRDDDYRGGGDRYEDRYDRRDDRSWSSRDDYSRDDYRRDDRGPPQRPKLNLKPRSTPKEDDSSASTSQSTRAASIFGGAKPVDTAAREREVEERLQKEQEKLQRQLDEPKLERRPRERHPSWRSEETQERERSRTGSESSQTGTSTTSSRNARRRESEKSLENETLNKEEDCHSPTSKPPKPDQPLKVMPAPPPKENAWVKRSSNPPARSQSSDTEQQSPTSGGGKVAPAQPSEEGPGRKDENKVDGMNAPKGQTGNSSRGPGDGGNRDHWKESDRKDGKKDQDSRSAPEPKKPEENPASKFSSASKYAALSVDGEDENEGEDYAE

Chain of Flag-eIF4B (S406A) (chain, as listed by the source S406A): as the sequence (chain, as listed by the source) above, with S406A counted along it

For recombinant full-length MELK, the “positional scanning peptide library screen, in vitro phosphorylation with 32P-ATP” value [1] was “an optimal substrate motif for MELK was identified having a strong selection for arginine at the -3 position relative to serine/threonine”, the “in vitro kinase assay, phosphorylation of eIF4B at S406 (immunoblot)” value [2] was “This phosphorylation was abolished when wild type (wt) eIF4B was replaced with a mutant eIF4B (S406A)” and the “in vitro kinase assay, phosphorylation of eIF4B at Ser406 (immunoblot)” value [3] was “Ser406, but not Ser422, of human eIF4B was readily phosphorylated by full-length MELK or the kinase domain of MELK”. For the same substance, the “in vitro kinase assay, phosphorylation of eIF4B at Ser422 (immunoblot)” value [3] was “MELK does not phosphorylates eIF4B at S422 in vitro”.
